Sequences and labels used below:
B1: Hammerhead Ribozyme (parent)
chain: ACCGGAUGUGCUUUCCGGUCUGAUGAGUCCGUGAGGACGAAACAG

Variants of B1 are the subject of this series. In words: self-cleavage, relative activity (ratio to wild type); higher = more cleavage; co-transcriptional.
ACCGGAUGUACUUUCUGGUCUGAUGAGUCCGUGAGGACGAAACAG [G10A C16U]: the self-cleavage was determined as 0.971.
Regarding ACCGGAGGUGCUUUGCGGUCUGAUGAGUCCGUGAGGACGAAACAG [U7G C15G], the self-cleavage stood at 0.699.
As to ACCGGAUGUUCUUUCCGGUCUGAUGAGUCCGUGAGGUCGAAACAG [G10U A37U], the self-cleavage stood at 0.768.
On to CCCGGAUGUGCUUUCCGGUCUGAUGAGUCCGUGAGGACGAAACAU [A1C G45U], for which the self-cleavage is 0.437.
For ACCUGAUGUGCUUUCCGGUCUGAUGAGUCCGUGAGGACGAAUCAG [G4U A42U], the self-cleavage was 0.307.
In the case of ACCUGAUGUGCUUUCCGGUCUGAUGAGUCCGUGAGGACGAAGCAG [G4U A42G], the self-cleavage turned out to be 0.336.
Regarding ACCGGAUGUGCUUUCCGGUCUGAUGAGACCGUGAGGACGAAAGAG [U28A C43G], the self-cleavage was 0.336.
For ACCGGCUGUGCUUUCCGGUCUGAUGAGUCCGUGAGGACAAAACAG [A6C G39A] the value was 0.311; for ACCGGAUGUGCUGUCCGGUCUGAUGAGACCGUGAGGACGAAACAG [U13G U28A], 0.673; for ACCGGAUGUGCUUUGCGGUCUGAUGAGUCCAUGAGGACGAAACAG [C15G G31A], 1.01.
Turning to ACCGGAUGUGCUUUCCGGUCUGAUGAGUCCGUUAGGACCAAACAG [G33U G39C], the self-cleavage is 0.464.
For ACCGGAUGUGCUUUCCGGUCAGAUGAGUCCGUGAGGACGAAACCG [U21A A44C] the value was 0.415.
For the variant ACCGGAUGUGCUUUCCUGUCUGAUGAGUCCGUGAGGACGAACCAG [G17U A42C], the self-cleavage came out at 0.394.
Consider ACCGGAUGUGUUUUCCGGUCUGAUGAGUCCGUGAGGAGGAAACAG [C11U C38G], for which the self-cleavage amounted to 0.611.
For ACCGAAAGUGCUUUCCGGUCUGAUGAGUCCGUGAGGACGAAACAG [G5A U7A], the self-cleavage was determined as 0.95.
Consider AUGGGAUGUGCUUUCCGGUCUGAUGAGUCCGUGAGGACGAAACAG [C2U C3G], for which the self-cleavage turned out to be 0.319.
Regarding ACCGGAUGGGCUUACCGGUCUGAUGAGUCCGUGAGGACGAAACAG [U9G U14A], the self-cleavage amounted to 0.916.
Regarding ACCGGAUGUGCUUUCCGGUCUGAUGAGGCCGUGAGGACGAAUCAG [U28G A42U], the self-cleavage was determined as 0.311.
In the case of ACCGGAUGUGUUUUCCGGUCUGAUGAGUCCGUGAGGACGAAAAAG [C11U C43A], the self-cleavage was 0.36.
Take ACCGGAUGUGCUUUCCGGUCUGGUGAGUCCGUGAGGUCGAAACAG [A23G A37U]: the self-cleavage turned out to be 0.28.
Regarding ACCGGAAGUGCUUUCCGGUCUGAUGAGUCCGUGAGCACGAAACAG [U7A G36C], the self-cleavage was 0.394.
For the variant ACCGGAUGUGCUUUCUGGUCUGAUGGGUCCGUGAGGACGAAACAG [C16U A26G], the self-cleavage worked out at 0.358.
As for ACCGGAUGUGCUUACCGGUCUGAUGAGUCCGUGAGGUCGAAACAG [U14A A37U], the self-cleavage amounted to 0.618.
Regarding ACCGGAUGUGCUUGCCGGUCUGAUGCGUCCGUGAGGACGAAACAG [U14G A26C], the self-cleavage came out at 0.764.
Take ACCGGAUGUGCUUUCCGUUCUGAUGAGUCCGUGGGGACGAAACAG [G18U A34G]: the self-cleavage was determined as 0.493.
For the variant ACCGGAUGUGCUUUCCGGUCGGAUGAGUCCAUGAGGACGAAACAG [U21G G31A], the self-cleavage came out at 0.797.
In the case of ACCGGAUGUGCUUUCCGGUCUGAUGAGUCCCUGAGGACGAAACCG [G31C A44C], the self-cleavage was determined as 0.441.
As to ACCGGAUGUGCUUUCCGGUCUGUUGAGUACGUGAGGACGAAACAG [A23U C29A], the self-cleavage is 0.352.
Regarding ACCGGAUGUGCUUUCCGGUCUGAUGGGUCCGUGAGGAAGAAACAG [A26G C38A], the self-cleavage came to 0.325.
In the case of AACGGAUGUGCUUUCCGGUUUGAUGAGUCCGUGAGGACGAAACAG [C2A C20U], the self-cleavage came to 0.372.
Turning to AACGGAUGGGCUUUCCGGUCUGAUGAGUCCGUGAGGACGAAACAG [C2A U9G], the self-cleavage was found to be 0.44.
As to ACCGGAUGUGCUUUCCGGUCUGAUGAGUCCGUGAGGGCGAACCAG [A37G A42C], the self-cleavage was determined as 0.342.
As to ACCGGAUGUGCUUUCCGCUCUGAUGAGUCCGUGAGGACGCAACAG [G18C A40C], the self-cleavage worked out at 0.389.
On to ACCGGAUGUGCUUUCCGGUCUGAUGAGUCCGUGGGGACGAUACAG [A34G A41U], for which the self-cleavage was determined as 0.284.
With ACCGGAUGUGCUUUCCGGACUGAUUAGUCCGUGAGGACGAAACAG [U19A G25U], the self-cleavage amounted to 0.35.
As to ACCGGAUGUGCUUUCCGGUCUGAUGAGUCCGUGAAGCCGAAACAG [G35A A37C], the self-cleavage came to 0.364.
In the case of ACCGGAUGUGCCUUGCGGUCUGAUGAGUCCGUGAGGACGAAACAG [U12C C15G], the self-cleavage is 0.474.
For ACCGGAUUUGCUUUCCGGUCUGAUGAGUCCGUGAGGACGAAAAAG [G8U C43A] the value was 0.254; for ACCGGAUUUGCUUUCCGGUCUGAUGAGUCCGUGAGGACGAAAGAG [G8U C43G], 0.333.
In the case of CCCGGAUGUGCUUUCCGGUCUGAUGAGCCCGUGAGGACGAAACAG [A1C U28C], the self-cleavage came to 0.405.
Take ACCGGAUAUACUUUCCGGUCUGAUGAGUCCGUGAGGACGAAACAG [G8A G10A]: the self-cleavage was determined as 1.16.
Regarding ACCAGAUGUGCUUUCCUGUCUGAUGAGUCCGUGAGGACGAAACAG [G4A G17U], the self-cleavage amounted to 0.39.
For the variant ACCGGGUGUGCUUUCCGGUCUGAUGAGCCCGUGAGGACGAAACAG [A6G U28C], the self-cleavage was 0.792.
For ACUGGAUGUGCUUUCCGCUCUGAUGAGUCCGUGAGGACGAAACAG [C3U G18C], the self-cleavage is 0.472.
For ACAGGAUGUGCUUUCCGGUCUGAUUAGUCCGUGAGGACGAAACAG [C3A G25U], the self-cleavage was determined as 0.282.
With GCCGGAUGUGCUUUCCGGUUUGAUGAGUCCGUGAGGACGAAACAG [A1G C20U] the figure was 0.971; with ACCGGAUGUGCUUUCCGGUCUGAAGAGUCCGAGAGGACGAAACAG [U24A U32A], 0.859; with ACCGAAUGGGCUUUCCGGUCUGAUGAGUCCGUGAGGACGAAACAG [G5A U9G], 0.88.
For ACCGGGUGUGCUUUCCGGUCUGAUAAGUCCGUGAGGACGAAACAG [A6G G25A], the self-cleavage came out at 0.263.
Take ACAGGAUGUACUUUCCGGUCUGAUGAGUCCGUGAGGACGAAACAG [C3A G10A]: the self-cleavage was 0.897.
For ACCGGAUGUGCUUUCCGGUCGGAUGAGUCCGUGAGGACCAAACAG [U21G G39C], the self-cleavage came out at 0.314.
For ACCGGAUGUGCUUUCCGGUCUGAACAGUCCGUGAGGACGAAACAG [U24A G25C] the value was 0.366; for ACCGGAUGUGCUUUCGGGUCUGAAGAGUCCGUGAGGACGAAACAG [C16G U24A], 0.751; for ACCGGAUGUGCUAUCCAGUCUGAUGAGUCCGUGAGGACGAAACAG [U13A G17A], 1.16.
In the case of ACAGGAUGUGCUUUCCGGUCUGACGAGUCCGUGAGGACGAAACAG [C3A U24C], the self-cleavage turned out to be 0.94.
Turning to ACCGGAUGUGCUUUCCGGUCUGAUGAGUCCGUGAGGACGGAACUG [A40G A44U], the self-cleavage is 0.254.
On to ACCGGAUGUGCUUUCCGGUCUGAUAAUUCCGUGAGGACGAAACAG [G25A G27U], for which the self-cleavage turned out to be 0.314.

The values are drawn from the RNAGym collection of RNA variant scans (doi:10.7554/elife.80360).
